Measured values as given in patent publication US20120058906A1 (published 2012).
Changes are numbered by the printed parent chain. Values belong to the binder of their own block, whether it stands above or below them.

Columns and labels:
[1] = target: T1, rHuman EGF R/Fc Chimera, CF (R&D Systems Cat#344-ER) (human, UniProt P00533 25-645); test: MSD ECL titration, Fab 0.6 nM, blank 226;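 further: blank spot per well as comparator with Hit at signal to blank ratio of 4 or more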
T1 construct: Bought Fc chimera; Fc part of the bought chimera not given

[2] = target: T2, rHuman Notch-1/Fc Chimera, CF (R&D Systems Cat#3647-TK) (human, UniProt P46531 19-526); test: MSD ECL titration, Fab 0.6 nM, blank 226;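 further: blank spot per well as comparator with Hit at signal to blank ratio of 4 or more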
T2 construct: Bought Fc chimera; Fc part of the bought chimera not given

[3] = target: T3, rHuman Erythropoietin R/Fc Chimera, CF (R&D Systems Cat#963-ER) (human, UniProt P19235 25-250); test: MSD ECL titration, Fab 0.6 nM, blank 226;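 further: blank spot per well as comparator with Hit at signal to blank ratio of 4 or more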
T3 construct: Bought Fc chimera; also called EPO R/Fc; EPOR; Fc part of the bought chimera not given
T3 sequence: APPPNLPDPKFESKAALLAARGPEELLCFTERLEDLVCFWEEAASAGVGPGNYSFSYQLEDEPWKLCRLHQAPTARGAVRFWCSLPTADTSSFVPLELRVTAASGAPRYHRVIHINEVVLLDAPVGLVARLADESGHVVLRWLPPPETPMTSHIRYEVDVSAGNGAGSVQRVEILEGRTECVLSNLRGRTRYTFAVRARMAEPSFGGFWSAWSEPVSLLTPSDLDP

[4] = target: T4, rHuman ErbB2/Fc Chimera, CF (R&D Systems Cat#1129-ER) (human, UniProt P04626 23-652); test: MSD ECL titration, Fab 0.6 nM, blank 226;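 further: blank spot per well as comparator with Hit at signal to blank ratio of 4 or more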
T4 construct: Bought Fc chimera; also called HER2/neu; Fc part of the bought chimera not given

[5] = target: T5, rHuman HGF R/c-MET/Fc Chimera, CF (R&D Systems Cat#358-MT/CF) (human, UniProt P08581 25-932); test: ECL (MSD multi-spot), antigen on plate, Fab 5 nM
T5 construct: Bought Fc chimera; also called HGF R/Fc; not shown: Fc of the bought chimera

[6] = target: T6, rHuman ErbB2/Fc Chimera, CF (R&D Systems Cat#1129-ER) (human, UniProt P04626 23-652); test: ECL (MSD multi-spot), antigen on plate, Fab 5 nM
T6 construct: Bought Fc chimera; also called HER2/neu; not shown: Fc of the bought chimera

[7] = target: T7, rHuman EGF R/Fc Chimera, CF (R&D Systems Cat#344-ER) (human, UniProt P00533 25-645); test: ECL (MSD multi-spot), antigen on plate, Fab 5 nM
T7 construct: Bought Fc chimera; also called ErbB-1; not shown: Fc of the bought chimera

[8] = target: T8, rHuman Erythropoietin R/Fc Chimera, CF (R&D Systems Cat#963-ER) (human, UniProt P19235 25-250); test: ECL (MSD multi-spot), antigen on plate, Fab 5 nM
T8 construct: Bought Fc chimera; also called EPO R/Fc; Epo R; not shown: Fc of the bought chimera
T8 sequence: T3 sequence

[9] = target: T9, rHuman Notch-1/Fc Chimera, CF (R&D Systems Cat#3647-TK) (human, UniProt P46531 19-526); test: ECL (MSD multi-spot), antigen on plate, Fab 5 nM
T9 construct: Bought Fc chimera; not shown: Fc of the bought chimera

[10] = target: T10, rHuman CD44/Fc Chimera, CF (R&D Systems Cat#3660-CD) (human, UniProt P16070 21-220); test: ECL (MSD multi-spot), antigen on plate, Fab 5 nM
T10 construct: Bought Fc chimera; not shown: Fc of the bought chimera

[11] = target: T11, rHuman P-Cadherin/Fc Chimera, CF (R&D Systems Cat#861-PC) (human, UniProt P22223 108-654); test: ECL (MSD multi-spot), antigen on plate, Fab 5 nM
T11 construct: Bought Fc chimera; also called CDH3; not shown: Fc of the bought chimera

[12] = target: T12, Recombinant Human DLL4 (R&D Systems Cat#1506-D4/CF) (human, UniProt Q9NR61 27-524); test: ECL (MSD multi-spot), antigen on plate, Fab 5 nM
T12 construct: Bought recombinant protein; also called delta-like protein 4

[13] = target: T13, rHuman IGF-1 sR (insulin-like growth factor-1 soluble receptor), CF (R&D Systems Cat#391-GR) (human, UniProt P08069 31-932); test: ECL (MSD multi-spot), antigen on plate, Fab 5 nM
T13 construct: Bought soluble receptor; also called IGF-R1

[14] = target: T5, rHuman HGF R/c-MET/Fc Chimera, CF (R&D …); test: ECL (MSD multi-spot), antigen on plate, Fab 50 nM
[15] = target: T6, rHuman ErbB2/Fc Chimera, CF (R&D …); test: ECL (MSD multi-spot), antigen on plate, Fab 50 nM
[16] = target: T7, rHuman EGF R/Fc Chimera, CF (R&D …); test: ECL (MSD multi-spot), antigen on plate, Fab 50 nM
[17] = target: T8, rHuman Erythropoietin R/Fc Chimera, CF …; test: ECL (MSD multi-spot), antigen on plate, Fab 50 nM
[18] = target: T10, rHuman CD44/Fc Chimera, CF (R&D Systems …); test: ECL (MSD multi-spot), antigen on plate, Fab 50 nM
[19] = target: T11, rHuman P-Cadherin/Fc Chimera, CF (R&D …); test: ECL (MSD multi-spot), antigen on plate, Fab 50 nM
[20] = target: T12, Recombinant Human DLL4 (R&D Systems …); test: ECL (MSD multi-spot), antigen on plate, Fab 50 nM
[21] = target: T13, rHuman IGF-1 sR (insulin-like growth …); test: ECL (MSD multi-spot), antigen on plate, Fab 50 nM

ECL signal [1]: 309
ECL signal [2]: 337
ECL signal [3]: 337
ECL signal [4]: 215
B1: Fab VH1-46_IGHD6-6*01_IGHJ1*01 & L6_IGKJ1*01 (Fab, V domains shown)
VH: QVQLVQSGAEVKKPGASVKVSCKASGYTFTSYYMHWVRQAPGQGLEWMGIINPSGGSTSYAQKFQGRVTMTRDTSTSTVYMELSSLRSEDTAVYYCAREEYSSSSAEYFQHWGQGTLVTVSS
VL: not shown
notes: Expressed in E. coli as Fab: heavy chain with CH1 plus Flag and His tags from Plasmid A, kappa light chain constant region from Plasmid C; also called Fab No. 1

ECL signal [5]: 3100 ECL signal
ECL signal [6]: 2860 ECL signal
ECL signal [7]: 2980 ECL signal
ECL signal [8]: 3580 ECL signal
ECL signal [9]: 3230 ECL signal
ECL signal [10]: 2760 ECL signal
ECL signal [11]: 4160 ECL signal
ECL signal [12]: 73400 ECL signal
ECL signal [13]: 3030 ECL signal
B2: Fab VH1-46_IGHD6-6*01_IGHJ1*01_S102A_S103P_S104Y_H111Y & L6_IGKJ1*01 (Fab, V domains shown)
VH: B1 VH with S102A, S103P, S104Y, H111Y
VL: not shown
notes: Fab made in E. coli; The heavy chain also carries CH1 with Flag and His tags from Plasmid A, and the light chain carries kappa CL from Plasmid C

ECL signal [14]: 183 ECL signal
ECL signal [15]: 384 ECL signal
ECL signal [16]: 328 ECL signal
ECL signal [17]: 527 ECL signal
ECL signal [18]: 340 ECL signal
ECL signal [19]: 431 ECL signal
ECL signal [20]: 37700 ECL signal
ECL signal [21]: 355 ECL signal
B3: Fab VH1-46_IGHD6-6*01_IGHJ1*01_S102A_S103P_S104F & L6_IGKJ1*01_S28P (Fab, V domains shown)
VH: B1 VH with S102A, S103P, S104F
VL: EIVLTQSPATLSLSPGERATLSCRASQPVSSYLAWYQQKPGQAPRLLIYDASNRATGIPARFSGSGSGTDFTLTISSLEPEDFAVYYCQQRSNWPPWTFGQGTKVEIKR
notes: Fab
